In US20070202045A1 (published 2007) one finds IC50 data, which are given here for one molecule.

A word on the IC50: it is the concentration that gives 50% inhibition. A low value points to greater potency in that assay.

Bridges are numbered along the chain shown (N, C = ends).

The experiment addresses T1, rabbit albumin (rabbit, UniProt P49065 25-608).
T1 chain: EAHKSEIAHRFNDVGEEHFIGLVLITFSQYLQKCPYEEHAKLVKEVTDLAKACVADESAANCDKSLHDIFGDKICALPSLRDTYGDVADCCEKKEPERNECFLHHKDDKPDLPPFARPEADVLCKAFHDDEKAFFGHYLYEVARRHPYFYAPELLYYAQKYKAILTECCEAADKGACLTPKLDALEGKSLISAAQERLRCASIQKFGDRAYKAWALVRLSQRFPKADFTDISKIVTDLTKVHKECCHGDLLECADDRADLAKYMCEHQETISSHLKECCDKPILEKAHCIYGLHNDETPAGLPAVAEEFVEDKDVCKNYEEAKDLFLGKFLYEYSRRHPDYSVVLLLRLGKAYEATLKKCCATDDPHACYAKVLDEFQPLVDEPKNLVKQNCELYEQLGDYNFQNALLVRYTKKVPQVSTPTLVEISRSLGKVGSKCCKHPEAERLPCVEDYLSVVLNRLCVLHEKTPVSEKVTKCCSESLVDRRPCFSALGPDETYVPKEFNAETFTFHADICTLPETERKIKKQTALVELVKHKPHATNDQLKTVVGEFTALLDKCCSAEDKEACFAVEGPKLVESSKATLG
The experiment in a line: competition ELISA (SA08b binding to rabbit albumin). (In general: An ELISA detects its analyte on a solid surface through an enzyme-linked reagent.)

Consider Ac-QGLIGDICLPRWGCLWGDSVK-NH2 (disulfide 8-14 (inferred)) [SA08], for which the IC50 turned out to be 33 nM.
